# Test results: patent US20230110958A1 (Regeneron, published 2023)
# B1: IL27M3, Bivalent p28-EBI3-Fc (Fc fusion)
# chain: FPTDPLSLQELRREFTVSLYLARKLLSEVQGYVHSFAESRLPGVNLDLLPLGYHLPNVSLTFQAWHHLSDSERLCFLATTLRPFPAMLGGLGTQGTWTSSEREQLWAMRLDLRDLHRHLRFQVLAAGFKCSKEEEDKEEEEEEEEEEKKLPLGALGGPNQVSSQVSWPQLLYTYQLLHSLELVLSRAVRDLLLLSLPRRPGSAWDSGGGGSGGGGSGGGGSGGGGSGGGGSYTETALVALSQPRVQCHASRYPVAVDCSWTPLQAPNSTRSTSFIATYRLGVATQQQSQPCLQRSPQASRCTIPDVHLFSTVPYMLNVTAVHPGGASSSLLAFVAERIIKPDPPEGVRLRTAGQRLQVLWHPPASWPFPDIFSLKYRLRYRRRGASHFRQVGPIEATTFTLRNSKPHAKYCIQVSAQDLTDYGKPSDWSLPGQVESAPHKPGGGGSGGGGSGGGGSESKYGPPCPPCPAPPVAGPSVFLFPPKPKDTLMISRTPEVTCVVVDVSQEDPEVQFNWYVDGVEVHNAKTKPREEQFNSTYRVVSVLTVLHQDWLNGKEYKCKVSNKGLPSSIEKTISKAKGQPREPQVYTLPPSQEEMTKNQVSLTCLVKGFYPSDIAVEWESNGQPENNYKTTPPVLDSDGSFFLYSRLTVDKSRWQEGNVFSCSVMHEALHNHYTQKSLSLSLGK
# B2: IL27M12, monovalent EBI3-p28 x Fc (Fc fusion)
# chain 1: YTETALVALSQPRVQCHASRYPVAVDCSWTPLQAPNSTRSTSFIATYRLGVATQQQSQPCLQRSPQASRCTIPDVHLFSTVPYMLNVTAVHPGGASSSLLAFVAERIIKPDPPEGVRLRTAGQRLQVLWHPPASWPFPDIFSLKYRLRYRRRGASHFRQVGPIEATTFTLRNSKPHAKYCIQVSAQDLTDYGKPSDWSLPGQVESAPHKPGGGGSGGGGSGGGGSGGGGSFPTDPLSLQELRREFTVSLYLARKLLSEVQGYVHSFAESRLPGVNLDLLPLGYHLPNVSLTFQAWHHLSDSERLCFLATTLRPFPAMLGGLGTQGTWTSSEREQLWAMRLDLRDLHRHLRFQVLAAGFKCSKEEEDKEEEEEEEEEEKKLPLGALGGPNQVSSQVSWPQLLYTYQLLHSLELVLSRAVRDLLLLSLPRRPGSAWDSGGGGSGGGGSGGGGSESKYGPPCPPCPAPPVAGPSVFLFPPKPKDTLMISRTPEVTCVVVDVSQEDPEVQFNWYVDGVEVHNAKTKPREEQFNSTYRVVSVLTVLHQDWLNGKEYKCKVSNKGLPSSIEKTISKAKGQPREPQVYTLPPSQEEMTKNQVSLWCLVKGFYPSDIAVEWESNGQPENNYKTTPPVLDSDGSFFLYSRLTVDKSRWQEGNVFSCSVMHEALHNHYTQKSLSLSLGK
# chain 2: ESKYGPPCPPCPAPPVAGPSVFLFPPKPKDTLMISRTPEVTCVVVDVSQEDPEVQFNWYVDGVEVHNAKTKPREEQFNSTYRVVSVLTVLHQDWLNGKEYKCKVSNKGLPSSIEKTISKAKGQPREPQVYTLPPSQEEMTKNQVSLSCAVKGFYPSDIAVEWESNGQPENNYKTTPPVLDSDGSFFLVSRLTVDKSRWQEGNVFSCSVMHEALHNRFTQKSLSLSPGK
# B3: IL27M13, Bivalent p28-Fc (Fc fusion)
# chain: FPTDPLSLQELRREFTVSLYLARKLLSEVQGYVHSFAESRLPGVNLDLLPLGYHLPNVSLTFQAWHHLSDSERLCFLATTLRPFPAMLGGLGTQGTWTSSEREQLWAMRLDLRDLHRHLRFQVLAAGFKCSKEEEDKEEEEEEEEEEKKLPLGALGGPNQVSSQVSWPQLLYTYQLLHSLELVLSRAVRDLLLLSLPRRPGSAWDSGGGGSGGGGSGGGGSESKYGPPCPPCPAPPVAGPSVFLFPPKPKDTLMISRTPEVTCVVVDVSQEDPEVQFNWYVDGVEVHNAKTKPREEQFNSTYRVVSVLTVLHQDWLNGKEYKCKVSNKGLPSSIEKTISKAKGQPREPQVYTLPPSQEEMTKNQVSLTCLVKGFYPSDIAVEWESNGQPENNYKTTPPVLDSDGSFFLYSRLTVDKSRWQEGNVFSCSVMHEALHNHYTQKSLSLSLGK
# Molecular target: T1, murine IL27 receptor (IL27Ra and gp130) on mouse cells (MC9/STAT3-Luc reporter cells; splenic CD4+ T cells) (mouse, UniProt O70394 25-623; Q00560 23-917)
# T1 sequence (looked up) 1: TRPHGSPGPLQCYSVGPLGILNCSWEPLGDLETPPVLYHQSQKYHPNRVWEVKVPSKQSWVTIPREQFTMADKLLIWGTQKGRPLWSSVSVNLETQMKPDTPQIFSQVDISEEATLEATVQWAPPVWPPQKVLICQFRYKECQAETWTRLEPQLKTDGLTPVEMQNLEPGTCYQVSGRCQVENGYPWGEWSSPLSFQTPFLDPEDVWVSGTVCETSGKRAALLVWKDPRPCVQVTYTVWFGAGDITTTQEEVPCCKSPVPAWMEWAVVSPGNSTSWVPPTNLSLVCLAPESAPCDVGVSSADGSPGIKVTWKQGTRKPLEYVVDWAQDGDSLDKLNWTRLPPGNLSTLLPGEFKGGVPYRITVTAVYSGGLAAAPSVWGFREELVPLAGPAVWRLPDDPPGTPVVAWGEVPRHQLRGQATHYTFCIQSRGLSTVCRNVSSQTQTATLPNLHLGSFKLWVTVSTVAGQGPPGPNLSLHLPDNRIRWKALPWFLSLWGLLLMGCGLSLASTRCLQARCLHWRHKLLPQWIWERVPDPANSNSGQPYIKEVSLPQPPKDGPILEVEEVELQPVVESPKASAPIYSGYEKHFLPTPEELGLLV
# T1 sequence (looked up) 2: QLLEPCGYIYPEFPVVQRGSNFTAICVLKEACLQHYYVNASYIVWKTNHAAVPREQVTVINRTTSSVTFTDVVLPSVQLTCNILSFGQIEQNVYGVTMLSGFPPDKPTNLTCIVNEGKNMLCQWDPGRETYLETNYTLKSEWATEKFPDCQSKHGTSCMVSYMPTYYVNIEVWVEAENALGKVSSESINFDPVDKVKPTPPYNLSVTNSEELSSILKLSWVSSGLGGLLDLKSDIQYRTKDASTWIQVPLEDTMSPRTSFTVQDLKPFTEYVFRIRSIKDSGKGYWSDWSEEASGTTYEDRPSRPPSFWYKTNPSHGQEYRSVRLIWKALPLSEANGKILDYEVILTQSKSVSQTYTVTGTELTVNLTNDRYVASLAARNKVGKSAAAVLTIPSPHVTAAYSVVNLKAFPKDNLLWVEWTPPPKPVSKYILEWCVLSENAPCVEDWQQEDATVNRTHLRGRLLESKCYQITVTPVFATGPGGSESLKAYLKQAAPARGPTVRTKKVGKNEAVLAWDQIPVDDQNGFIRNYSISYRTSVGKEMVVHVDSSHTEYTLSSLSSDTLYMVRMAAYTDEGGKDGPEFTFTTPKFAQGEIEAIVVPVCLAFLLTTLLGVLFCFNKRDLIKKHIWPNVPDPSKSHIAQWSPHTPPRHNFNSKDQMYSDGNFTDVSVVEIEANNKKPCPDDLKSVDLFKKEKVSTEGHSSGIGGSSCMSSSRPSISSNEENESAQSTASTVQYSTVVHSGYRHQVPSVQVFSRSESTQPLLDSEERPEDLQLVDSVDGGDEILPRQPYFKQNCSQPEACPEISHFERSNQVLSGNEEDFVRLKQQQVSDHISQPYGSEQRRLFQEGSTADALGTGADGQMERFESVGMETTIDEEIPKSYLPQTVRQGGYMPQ
# Assay: cell-based or functional assay
Binder,"EC50 (M), STAT3 luciferase, MC9 cells","FOLD INDUCTION, STAT3 luciferase, MC9 cells"
B1,8.63e-10 M,3.02 fold
B2,1.22e-11 M,2.68 fold
B3,–,1.11 fold
